Target: T1, RamA (Klebsiella pneumoniae (Ecl8?)) (UniProt Q48413)
T1 sequence: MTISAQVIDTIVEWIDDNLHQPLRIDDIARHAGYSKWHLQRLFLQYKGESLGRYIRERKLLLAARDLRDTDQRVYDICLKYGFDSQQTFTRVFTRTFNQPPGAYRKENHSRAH
Experiment: EMSA

Sequence	binding
GCACTTCAACTAAATTCGCCTGAGTTTGGCTCATAAAATCATCCTTACTAAACACCTGACGGGCAAGCATGGCCCTTTCTTGCGCCACAATCACAACATTTTTACAGAATCTTACCTGCACAGGTTAGCGAAAGCTGGCATTTGTTTTACTTTTGGCACACATAAAGTCAAAATTAAGAATTCGTTACGCTGCGTAGGGATAACCCAGCGAGGCGACGATTATACCTGAAG (double strand) [yrbF promoter]	binds
GCCTGCATAATCGTTTCCTGACAAAAAAGGGTATTGTGACCGATAGTCGCCCACTTGCAAAACCTCTCTGCGCGGTTGGTCATTACCCACCGCACAAATGGGACGTGTTTTTTCGGCTGAAATCGTTACAATCAGGAAATCATACTATCTGGAGTGAACCATGTTAGAGCTTTTGAAAAGTCTGGTTTTTGCGGTCATCATGGTACCGGTGGTGATGGCGGTCATCCTGGGACTGATTTACGGTCTTGGCGAAGTGTTCAAC (double strand) [ybhT promoter]	binds
GGAAACGATTGCCAGGACTGGTGCTTCAGGCCTGATAAACCGCTCACTTTGTTAACAACAGTGCTCAGATTTTAATGCATTATTAAAGATGCAGCTTTTCTGGCTGGCGCGTCCAGGATGCGCCAGGCTGGAAGAAGACCTTCAATCTGATGACGATGCTGTAGCAAAGTGAGCCTTTATGACTGACAAATCTGTTCCATTCTCGGTGCTCGATCTGGCGCCGATCCCGCAAGGATCTTCTGCCAAAGAAGCCTTTACCCA (double strand) [yhbW promoter]	binds
